Among the data in patent US20250051433A1 (INMAGENE PTE, published 2025) are EC50 values, retold here.

Usually EC50 stands for the concentration giving half of the maximal effect. A high value points to a need for much substance.

Changes are numbered by the printed parent chain.

Assay [1] addresses T1, human long form TSLP expressed on cell membrane.
T1 construct: also called membrane long-form huTSLP fusion protein; membrane long-form TSLP fusion protein
Nature of the assay: FACS on cells expressing the membrane human long-form TSLP fusion protein, MFI; unit taken from the concentration axis.

Assay [2] deals with T1, human long form TSLP expressed on cell …. Nature of the assay: FACS on cells expressing the membrane human long-form TSLP fusion protein, MFI; rising binding curve, but the table column is headed IC50; unit taken from the concentration axis.
Assay [3] has the same target. Kind of assay: FACS on cells expressing the membrane human long-form TSLP fusion protein, MFI; unit taken from the concentration axis. This is another data set of the same source.
For assay [4] the target is unchanged. The assay is described as above. This is another data set of the same source.

T1 sequence (chain, as listed by the source): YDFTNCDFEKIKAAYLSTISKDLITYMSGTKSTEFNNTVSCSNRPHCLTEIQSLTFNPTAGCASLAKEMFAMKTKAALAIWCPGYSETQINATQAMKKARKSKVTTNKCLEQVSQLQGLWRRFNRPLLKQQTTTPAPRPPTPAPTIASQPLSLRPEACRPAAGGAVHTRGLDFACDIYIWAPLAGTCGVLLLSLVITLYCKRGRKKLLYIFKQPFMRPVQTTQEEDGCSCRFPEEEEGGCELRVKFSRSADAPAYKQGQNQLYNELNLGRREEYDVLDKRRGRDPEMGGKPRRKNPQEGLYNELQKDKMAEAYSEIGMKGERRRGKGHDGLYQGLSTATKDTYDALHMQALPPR

B1: Chi35G12 (antibody, human IgG2, V domains shown)
VH: QVQLQQSGAELVRPGSSVKISCKSSGYAFSSYWMNWVKQRPGQGLEWIGQIFPGDGDTTYNGNFKGKTTLTADKSSNTAYMQLSSLTSEDSAVYFCARSGFDYGYFYAMDYWGQGTSVTVSS
VL: EIVLTQSPTLMAASPGEKVTITCSVSSSISSSNLHWYQQKSETSPKPWIFGTSNLASGVPVRFSGSGSGTSYSLTISNMEAEDAATYYCQQWSSYPLTFGAGTKLELK
notes: also called 35G12 chimeric antibody
Consider B1, for which the figures for the half-maximal effective concentration (EC50) in assay [1] and in assay [2] were 0.173 µg/mL and 0.403 µg/mL, respectively.

B2: 39H11Z07 (antibody, human IgG2, kappa)
heavy: QVQLVQSGAEVKKPGSSVKVSCKASGYAFSSYWMNWVRQAPGQGLEWMGQIFPGDGETNYNGKFKGRVTITADKSTSTAYMELSSLRSEDTAVYYCARGGYVNFLYAMDYWGQGTTVTVSSASTKGPSVFPLAPCSRSTSESTAALGCLVKDYFPEPVTVSWNSGALTSGVHTFPAVLQSSGLYSLSSVVTVPSSNFGTQTYTCNVDHKPSNTKVDKTVERKCCVECPPCPAPPVAGPSVFLFPPKPKDTLMISRTPEVTCVVVDVSHEDPEVQFNWYVDGVEVHNAKTKPREEQFNSTFRVVSVLTVVHQDWLNGKEYKCKVSNKGLPAPIEKTISKTKGQPREPQVYTLPPSREEMTKNQVSLTCLVKGFYPSDISVEWESNGQPENNYKTTPPMLDSDGSFFLYSKLTVDKSRWQQGNVFSCSVMHEALHNHYTQKSLSLSPGK
light: EIVMTQSPATLSVSPGERATLSCSVSSSISSSNLHWYQQKPGQSPRPWIYGTSTLASGIPARFSGSGSGTEFTLTISSLQSEDFAVYYCQQWSSYPLTFGGGTKVEIKRTVAAPSVFIFPPSDEQLKSGTASVVCLLNNFYPREAKVQWKVDNALQSGNSQESVTEQDSKDSTYSLSSTLTLSKADYEKHKVYACEVTHQGLSSPVTKSFNRGEC
notes: also called 39H11Z07-IgG2
In assay [3], B2 registered an EC50 of 0.079 µg/mL.

B3: 35G12Z03 (antibody, human IgG2, kappa)
heavy: QVQLVQSGAEVKKPGSSVKVSCKSSGYAFSSYWINWVRQAPGQGLEWMGQIFPGDGDTTYNGNFKGRVTITADKSTSTAYMELSSLRSEDTAVYYCARSGFDYGYFYAMDYWGQGTTVTVSSASTKGPSVFPLAPCSRSTSESTAALGCLVKDYFPEPVTVSWNSGALTSGVHTFPAVLQSSGLYSLSSVVTVPSSNFGTQTYTCNVDHKPSNTKVDKTVERKCCVECPPCPAPPVAGPSVFLFPPKPKDTLMISRTPEVTCVVVDVSHEDPEVQFNWYVDGVEVHNAKTKPREEQFNSTFRVVSVLTVVHQDWLNGKEYKCKVSNKGLPAPIEKTISKTKGQPREPQVYTLPPSREEMTKNQVSLTCLVKGFYPSDISVEWESNGQPENNYKTTPPMLDSDGSFFLYSKLTVDKSRWQQGNVFSCSVMHEALHNHYTQKSLSLSPGK
light: B2 light with Y50F, T54N
notes: also called 35G12Z03-IgG2
B3 returned an EC50 in assay [1] of 0.159 µg/mL.

B4: 39H11Z11 (antibody, human IgG2, V domains shown)
VH: QVQLVQSGAEVKKPGASVKVSCKASGYAFSSYWMNWVRQAPGQGLEWMGQIFPGDGETNYNGKFKGRVTMTRDTSTSTVYMELSSLRSEDTAVYYCARGGYVNFLYAMDYWGQGTTVTVSS
VL: EIVMTQSPATLSVSPGERATLSCSVSSSISSSNLHWYQQKPGQSPRPWIYGTSTLASGIPARFSGSGSGTEFTLTISSLQSEDFAVYYCQQWSSYPLTFGGGTKVEIK
Turning to B4, in assay [4], the EC50 came out at 0.129 µg/mL.

B5: 35G12Z02 (antibody, human IgG2, V domains shown)
VH: EVQLVQSGAEVKKPGESLKISCKSSGYAFSSYWINWVRQMPGKGLEWMGQIFPGDGDTTYNGNFKGQVTISADKSISTAYLQWSSLKASDTAMYYCARSGFDYGYFYAMDYWGQGTTVTVSS
VL: B4 VL with Y50F, T54N
Molecule B5 showed a half-maximal effective concentration (EC50) in assay [1] of 0.174 µg/mL.

B6: 35G12Z01 (antibody, human IgG2, V domains shown)
VH: QVQLVQSGAEVKKPGASVKVSCKSSGYAFSSYWMNWVRQAPGQGLEWMGQIFPGDGDTTYNGNFKGRVTMTRDTSTSTVYMELSSLRSEDTAVYYCARSGFDYGYFYAMDYWGQGTTVTVSS
VL: B4 VL with Y50F, T54N
Take B6: the EC50 in assay [1] stood at 0.158 µg/mL.
